Assay results taken from patent US20040106555, “Neurogenin3 and production of pancreatic islet cells” (published 2004).

Assays:
HNF3beta (FOXA2) [1] = target: T1, HNF3beta (FOXA2) (Rattus norvegicus, UniProt P32182 P32182:1-458); test: EMSA; high affinity; conditions: tags: pGEM-1 ratHNF3beta, TNT lysate; label: 32P
T1 sequence: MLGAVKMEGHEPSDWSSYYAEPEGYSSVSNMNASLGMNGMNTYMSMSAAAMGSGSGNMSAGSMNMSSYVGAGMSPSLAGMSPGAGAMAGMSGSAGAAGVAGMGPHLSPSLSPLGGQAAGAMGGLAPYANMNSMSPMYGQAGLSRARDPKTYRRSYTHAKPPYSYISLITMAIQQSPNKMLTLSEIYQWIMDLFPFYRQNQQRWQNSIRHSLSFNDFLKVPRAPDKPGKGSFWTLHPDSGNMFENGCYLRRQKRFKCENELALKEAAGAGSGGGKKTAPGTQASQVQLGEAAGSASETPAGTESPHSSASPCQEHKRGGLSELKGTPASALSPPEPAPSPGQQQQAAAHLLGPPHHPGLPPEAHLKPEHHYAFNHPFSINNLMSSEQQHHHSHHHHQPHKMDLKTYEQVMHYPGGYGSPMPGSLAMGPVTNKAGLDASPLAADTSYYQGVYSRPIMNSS
From the text: (§1) Single-stranded oligonucleotides corresponding to the sequences in the human ngn3 promoter were 5′ end-labeled with [γ-³²P]-ATP using T4 polynucleotide kinase. The labeled oligonucleotides were column-purified and annealed to an excess of the complementary strand. For HNF3β and HNF 1α binding experiments, EMSA buffers and electrophoresis conditions were as previously described (Mirmira et al. J Biol Chem 275:14743-51, 2000). For HES-1 binding experiments, conditions were the same except that the poly(dI-dC) concentration was decreased to 15 ng/ul. One μl of the in vitro reaction mixture or 2 ug of nuclear extracts or 400 ng of GST-fused Hes1 protein were used for each binding reaction. When using antibodies, 1 μl of each antibody was incubated with the binding mix for 15 min at room temperature prior to gel-electrophoresis. The antisera against HNF-3α, -3β, and -3γ were a generous gift from R. Costa (University of Illinois) and the HES-1 antiserum was a generous gift from Y. Jan (University of California San Francisco). The anti-HNF-1α antiserum was purchased from Santa Cruz Biotechnology, Inc. […]

HNF3beta (FOXA2) [2] = target: T1, HNF3beta (FOXA2); test: EMSA; high affinity; proximal and distal sites compete equally; conditions: tags: pGEM-1 ratHNF3beta, TNT lysate; label: 32P
From the text: as §1

E47 = target: T2, E47 (UniProt P15923-2 P15923-2:1-651); test: EMSA; comparable affinity on all four probes; conditions: tags: TNT reticulocyte lysate; chain copies: 2 inferred; label: 32P
T2 sequence: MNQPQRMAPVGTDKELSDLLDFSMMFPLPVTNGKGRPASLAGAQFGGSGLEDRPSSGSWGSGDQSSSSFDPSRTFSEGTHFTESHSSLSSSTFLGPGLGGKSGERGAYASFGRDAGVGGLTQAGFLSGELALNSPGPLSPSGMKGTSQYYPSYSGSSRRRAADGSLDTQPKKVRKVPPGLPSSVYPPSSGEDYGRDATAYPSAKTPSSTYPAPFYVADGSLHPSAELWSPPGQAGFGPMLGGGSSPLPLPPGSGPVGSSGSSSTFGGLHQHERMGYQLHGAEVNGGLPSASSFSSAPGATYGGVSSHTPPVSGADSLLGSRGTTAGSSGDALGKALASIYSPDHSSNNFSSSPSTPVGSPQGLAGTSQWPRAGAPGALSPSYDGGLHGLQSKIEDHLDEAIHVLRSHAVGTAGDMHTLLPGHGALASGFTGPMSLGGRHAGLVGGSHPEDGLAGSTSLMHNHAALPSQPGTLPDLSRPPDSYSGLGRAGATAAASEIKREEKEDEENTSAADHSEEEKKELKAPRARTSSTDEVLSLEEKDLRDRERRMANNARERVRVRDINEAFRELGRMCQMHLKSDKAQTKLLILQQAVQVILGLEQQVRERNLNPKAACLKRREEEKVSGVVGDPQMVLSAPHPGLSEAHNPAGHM
Description: (§2) FIGS. 23A-23B are photographs of electromobility shift assays (EMSAs) showing that bHLH factors bind pancreatic promoter E boxes. EMSA were used to test the ability of E47, neurogenin3 and neuroD 1 to bind to labeled, double stranded oligonucleotides containing the E box sequences from the rat insulin I and mouse nkx2.2 promoters (23A) or the human PAX4 and NEUROG3 promoters (23B). 1 μl of each in vitro-translated protein was incubated with the indicated probes, either individually or in the combination shown. Results are typical of experiments done on three occasions.
(§3) Electromobility Shift Assays. Single stranded oligonucleotides were 5′-end labeled using (γ-32P) ATP and T4 polynucleotide kinase. An excess of complementary strand was then annealed to form a duplex strand that was column purified. EMSA buffers and electrophoresis conditions were as described above using 500 ng of poly(dIdC):poly(dIdC) per 10 ul binding mix. For in vitro produced protein, 1 μl of the 50 μl total reaction volume was used per binding mix.
(§4) Oligonucleotides used were as follows (coding strand shown from each double stranded pair): NEUROG3 promoter E element, 5′-[…]-3′; rat insulin I promoter E2 element, 5′-[…]-3′; PAX4 promoter E element, 5′-[…]-3′; nkx2.2 promoter E3 element 5′-[…]-3′. EMSA results are representative of those seen on at least 3 occasions.

E47/NeuroD1 heterodimer [3] = target: T3, E47/NeuroD1 heterodimer (UniProt P15923-2;Q60867 P15923-2:1-651,Q60867:1-357); test: EMSA; second strongest of four; conditions: tags: TNT reticulocyte lysate; label: 32P
Description: as §2, §3, §4

E47/NeuroD1 heterodimer [4] = target: T3, E47/NeuroD1 heterodimer; test: EMSA; strongest of four; conditions: tags: TNT reticulocyte lysate; label: 32P
Description: as §2, §3, §4

NeuroD1 = NeuroD1 (UniProt Q60867 Q60867:1-357); test: EMSA; homodimer; conditions: tags: TNT reticulocyte lysate; chain copies: 2 stated; label: 32P
Description: as §2, §3, §4

E47/NeuroD1 heterodimer [5] = target: T3, E47/NeuroD1 heterodimer; test: EMSA; third of four; conditions: tags: TNT reticulocyte lysate; label: 32P
Description: as §2, §3, §4

T3 sequence (Q60867 whole entry, one chain of several): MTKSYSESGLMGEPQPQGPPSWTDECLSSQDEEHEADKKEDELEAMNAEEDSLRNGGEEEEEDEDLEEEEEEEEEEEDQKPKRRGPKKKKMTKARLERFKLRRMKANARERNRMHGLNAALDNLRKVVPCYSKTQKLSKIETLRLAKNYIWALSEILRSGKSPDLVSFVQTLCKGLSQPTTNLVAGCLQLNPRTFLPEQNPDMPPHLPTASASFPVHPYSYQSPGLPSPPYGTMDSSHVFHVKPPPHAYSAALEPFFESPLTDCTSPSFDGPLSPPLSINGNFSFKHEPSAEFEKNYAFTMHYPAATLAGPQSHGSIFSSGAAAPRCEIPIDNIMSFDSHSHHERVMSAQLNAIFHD
NeuroD1, sequence (Q60867 whole entry, one chain of several): as above

B1: H3-1 (ngn3 promoter proximal) (dsDNA)
DNA 1: GATCTCTCGAGAGAGCAAACAGCGCGGCGG
DNA 2: CCGCCGCGCTGTTTGCTCTCTCGAGAGATC
B1: binds (HNF3beta (FOXA2) [1]).

B2: H3-2 (ngn3 promoter distal) (dsDNA)
DNA 1: TTATTATTATTTTAGCAAACACTGGAGACAG
DNA 2: CTGTCTCCAGTGTTTGCTAAAATAATAATAA
B2: binds (HNF3beta (FOXA2) [2]).

B3: NEUROG3 E box (dsDNA)
DNA 1: CTTTGTCCGGAATCCAGCTGTGCCCTGCGGGGGAG
DNA 2: CTCCCCCGCAGGGCACAGCTGGATTCCGGACAAAG
B3: binds (E47).

B4: rat insulin I E2 (dsDNA)
DNA 1: CTGCTTCATCAGGCCATCTGGCCCCTTGTTAATAA
DNA 2: TTATTAACAAGGGGCCAGATGGCCTGATGAAGCAG
B4: binds (E47); binds (E47/NeuroD1 heterodimer [3]).

B5: PAX4 E box (dsDNA)
DNA 1: TGTATAATTGTGAGCAGATGGCGGGGGCTGGCGGC
DNA 2: GCCGCCAGCCCCCGCCATCTGCTCACAATTATACA
B5: binds (E47/NeuroD1 heterodimer [4]); binds (E47).

B6: nkx2.2 E3 (dsDNA)
DNA 1: TTATTACCGCTGAACATATGGCCAATATTTTGACT
DNA 2: AGTCAAAATATTGGCCATATGTTCAGCGGTAATAA
B6: binds (NeuroD1); binds (E47); binds (E47/NeuroD1 heterodimer [5]).
